From publication PMC3538848

Assays:
[1] = target: hemagglutinin of A/California/04/2009 (H1N1) (influenza A virus A/California/04/2009 (H1N1)) (UniProt C3W5S1)
[2] = target: hemagglutinin of A/Memphis/3/2008 (H1N1) (influenza A virus A/Memphis/3/2008 (H1N1))
[3] = target: hemagglutinin of A/Brisbane/59/2007 (H1N1) (influenza A virus A/Brisbane/59/2007 (H1N1))
[4] = target: A/Vietnam/1203/2004 (H5N1) hemagglutinin ectodomain (influenza A virus A/Vietnam/1203/2004 (H5N1))
[5] = target: hemagglutinin of A/Virginia/670/1987 (H1N1) (influenza A virus A/Virginia/670/1987 (H1N1))
[6] = target: hemagglutinin of A/Guiyang/1/1957 (H2N2) (influenza A virus A/Guiyang/1/1957 (H2N2))
[7] = target: hemagglutinin of A/Hong Kong/1073/1999 (H9N2) (influenza A virus A/Hong Kong/1073/1999 (H9N2))
[8] = target: A/Japan/305/1957 (H2N2) hemagglutinin ectodomain (influenza A virus A/Japan/305/1957 (H2N2)); assay: negative-stain EM, single-particle 3D reconstruction
[9] = target: A/Hong Kong/1/1968 (H3N2) hemagglutinin ectodomain, biotinylated (influenza A virus A/Hong Kong/1/1968 (H3N2)); assay: BLI
[10] = target: A/Hong Kong/1/1968 (H3N2) hemagglutinin ectodomain, biotinylated (influenza A virus A/Hong Kong/1/1968 (H3N2)); assay: BLI; remark: listed apart in the source
[11] = target: A/Hong Kong/1/1968 (H3N2) hemagglutinin ectodomain, biotinylated (influenza A virus A/Hong Kong/1/1968 (H3N2)); assay: ITC

Substance C05 IgG (antibody) has an MIC, hemagglutination inhibition (HAI) [1] greater than 100 µg/mL, an MIC, hemagglutination inhibition (HAI) [2] of less than 2.3 µg/mL and an MIC, hemagglutination inhibition (HAI) [3] of 1.56 µg/mL. It also gave an MIC, hemagglutination inhibition (HAI) [4] greater than 100 µg/mL, an MIC, hemagglutination inhibition (HAI) [5] greater than 100 µg/mL and an MIC, microneutralization (MN) [6] of 18 µg/mL. It also gave an MIC, microneutralization (MN) [7] of 90 µg/mL.

For C05 Fab (Lys-C digestion of IgG), the stoichiometry N [8] was 3.

For “C05 Fab (recombinant, for binding studies)”, the Kd [9] was 500 nM, the Kd [10] was 430 nM and the Kd [11] was 100 nM.
